Results as given in US20220228142A1 (VERTEX PHARMACEUTICALS, published 2022).

Biological target: 53BP1 (p53-binding protein 1) (human, UniProt Q12888 1-1972, limits assumed)
Experiment: cell-based or functional assay

Sequence of 53BP1 (p53-binding protein 1) (Q12888 whole entry): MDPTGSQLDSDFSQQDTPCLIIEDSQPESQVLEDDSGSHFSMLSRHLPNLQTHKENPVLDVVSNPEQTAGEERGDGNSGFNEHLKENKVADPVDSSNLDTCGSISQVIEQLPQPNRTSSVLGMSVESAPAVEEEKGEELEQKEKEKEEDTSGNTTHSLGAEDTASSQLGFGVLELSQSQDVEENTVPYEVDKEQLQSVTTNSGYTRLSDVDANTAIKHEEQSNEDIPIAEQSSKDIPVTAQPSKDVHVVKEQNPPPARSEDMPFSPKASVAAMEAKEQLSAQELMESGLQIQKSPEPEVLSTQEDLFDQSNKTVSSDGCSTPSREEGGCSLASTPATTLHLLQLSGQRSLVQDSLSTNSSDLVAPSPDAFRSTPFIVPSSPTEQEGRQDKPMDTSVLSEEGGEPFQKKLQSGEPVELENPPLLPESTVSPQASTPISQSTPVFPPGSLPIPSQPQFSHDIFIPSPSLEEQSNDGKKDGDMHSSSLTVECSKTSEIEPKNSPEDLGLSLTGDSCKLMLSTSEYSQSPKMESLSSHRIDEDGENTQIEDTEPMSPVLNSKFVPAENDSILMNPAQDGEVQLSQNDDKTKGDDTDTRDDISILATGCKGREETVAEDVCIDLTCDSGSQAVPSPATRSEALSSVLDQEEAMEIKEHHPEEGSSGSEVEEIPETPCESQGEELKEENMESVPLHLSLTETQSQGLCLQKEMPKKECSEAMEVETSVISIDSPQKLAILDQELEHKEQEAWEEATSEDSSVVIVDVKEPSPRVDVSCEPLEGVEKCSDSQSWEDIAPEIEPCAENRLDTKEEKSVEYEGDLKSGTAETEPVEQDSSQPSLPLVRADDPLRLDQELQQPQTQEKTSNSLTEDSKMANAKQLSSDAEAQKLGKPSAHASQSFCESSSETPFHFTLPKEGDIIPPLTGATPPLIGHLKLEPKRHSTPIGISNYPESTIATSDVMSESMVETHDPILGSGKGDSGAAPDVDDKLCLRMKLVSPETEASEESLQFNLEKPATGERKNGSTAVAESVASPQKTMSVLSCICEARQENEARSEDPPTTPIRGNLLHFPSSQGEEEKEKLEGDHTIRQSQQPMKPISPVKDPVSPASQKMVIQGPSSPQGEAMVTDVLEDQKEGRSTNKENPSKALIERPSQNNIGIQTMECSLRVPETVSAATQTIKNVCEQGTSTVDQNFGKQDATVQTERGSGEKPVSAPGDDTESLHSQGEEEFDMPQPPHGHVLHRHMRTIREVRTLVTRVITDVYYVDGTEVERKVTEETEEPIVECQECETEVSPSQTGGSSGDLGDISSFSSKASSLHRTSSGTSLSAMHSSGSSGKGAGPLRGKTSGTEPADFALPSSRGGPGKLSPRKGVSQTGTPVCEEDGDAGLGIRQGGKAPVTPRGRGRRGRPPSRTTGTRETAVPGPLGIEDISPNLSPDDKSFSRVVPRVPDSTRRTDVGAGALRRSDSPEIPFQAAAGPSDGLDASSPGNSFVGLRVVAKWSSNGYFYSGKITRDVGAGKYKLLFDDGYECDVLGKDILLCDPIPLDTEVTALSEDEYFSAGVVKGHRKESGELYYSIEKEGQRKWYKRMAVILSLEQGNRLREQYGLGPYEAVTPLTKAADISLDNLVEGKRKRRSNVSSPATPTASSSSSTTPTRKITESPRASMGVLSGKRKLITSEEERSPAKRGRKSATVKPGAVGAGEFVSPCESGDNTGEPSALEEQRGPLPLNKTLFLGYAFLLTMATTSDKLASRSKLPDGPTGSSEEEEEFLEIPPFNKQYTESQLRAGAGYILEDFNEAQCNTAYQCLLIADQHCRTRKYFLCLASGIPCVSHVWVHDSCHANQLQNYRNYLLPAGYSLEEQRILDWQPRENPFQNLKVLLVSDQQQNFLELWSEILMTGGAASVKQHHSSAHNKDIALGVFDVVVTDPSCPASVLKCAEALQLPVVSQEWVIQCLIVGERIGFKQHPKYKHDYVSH

B1: i53 polypeptide (polypeptide inhibitor of 53BP1) (designed binder)
chain: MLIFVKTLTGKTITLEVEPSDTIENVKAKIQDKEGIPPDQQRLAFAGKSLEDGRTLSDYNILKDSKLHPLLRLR
- INDELs due to NHEJ repair (+/-1 nt), T107 RNP+AAV.310, NGS: 1.3 fold reduction
